Changes are numbered by the printed parent chain.
B1: GOMP001_bsAb_024 (bispecific antibody, human IgG1, kappa, L234A L235A)
heavy 1: QGQLVESGGGVVQPGRSLRLSCEASGFTFRSYGMHWVRYPPGKGLEWVAIIWYDGGKKYYGDRVKGRFTISRDNPKNTLYLQMNSLRPEDTAVYYCMAYDYSNGFDIWGRGTMVTVSSASTKGPSVFPLAPSSKSTSGGTAALGCLVKDYFPEPVTVSWNSGALTSGVHTFPAVLQSSGLYSLSSVVTVPSSSLGTQTYICNVNHKPSNTKVDKKVEPKSCDKTHTCPPCPAPEAAGGPSVFLFPPKPKDTLMISRTPEVTCVVVDVSHEDPEVKFNWYVDGVEVHNAKTKPREEQYNSTYRVVSVLTVLHQDWLNGKEYKCKVSNKALPAPIEKTISKAKGQPRRPRVYTLPPSREEMTKNQVSLVCLVKGFYPSDIAVEWESNGQPENNYKTTPPVLDSDGSFFLYSVLTVDKSRWQQGNVFSCSVMHEALHNHYTQKSLSLSPG
light 1: DIVMTQTPLSSPVTLGQPASISCRSSQSFVHSDGSTYLSWLQRRPGDPPRLLIYKISNRFSGVPDRFSGRGAGTDFTLKISRVEAEDVGIYYCMQNTQFPYTFGQGTKLEIKRTVAAPSVFIFPPSDEQLKSGTASVVCLLNNFYPREAKVQWKVDNALQSGNSQESVTEQDSKDSTYSLSSTLTLSKADYEKHKVYACEVTHQGLSSPVTKSFNRGEC
heavy 2: QVQLVQSGAEVKKPGASVKVSCKASGYTFTSHWMHWVRYAPGQGLEWIGEFNPSNGRTNYNEKFKSKATMTVDTSTNTAYMELSSLRSEDTAVYYCASRDYDYDGRYFDYWGRGTLVTVSSASTKGPSVFPLAPSSKSTSGGTAALGCLVKDYFPEPVTVSWNSGALTSGVHTFPAVLQSSGLYSLSSVVTVPSSSLGTQTYICNVNHKPSNTKVDKKVEPKSCDKTHTCPPCPAPEAAGGPSVFLFPPKPKDTLMISRTPEVTCVVVDVSHEDPEVKFNWYVDGVEVHNAKTKPREEQYNSTYRVVSVLTVLHQDWLNGKEYKCKVSNKALPAPIEKTISKAKGQPRRPRVYTLPPSREEMTKNQVSLVCLVKGFYPSDIAVEWESNGQPENNYKTTPPVLDSDGSFFLYSVLTVDKSRWQQGNVFSCSVMHEALHNHYTQKSLSLSPG
light 2: DIQMTQSPSSLSASVGDRVTITCSASSSVTYMYWYQRKPGDAPKLLIYDTSNLASGVPSRFSGSGSGTDYTFTISSLQPEDIATYYCQQWSSHIFTFGQGTKVEIKRTVAAPSVFIFPPSDEQLKSGTASVVCLLNNFYPREAKVQWKVDNALQSGNSQESVTEQDSKDSTYSLSSTLTLSKADYEKHKVYACEVTHQGLSSPVTKSFNRGEC
B2: GOMP001_bsAb_037 (bispecific antibody, human IgG1, kappa, L234A L235A)
heavy 1: QVQLVQSGAEVKKPGASVKVSCKASGYTFTSHWMHWVRKAPGQGLEWIGEFNPSNGRTNYNEEFKSKATMTVDTSTNTAYMELSSLRSEDTAVYYCASRDYDYDGRYFDYWGQGTLVTVSSASTKGPSVFPLAPSSKSTSGGTAALGCLVADYFPEPVTVSWNSGALTSGVHTFPAVLQSSGLYSLSSVVTVPSSSLGTQTYICNVNHKPSNTKVDEKVEPKSCDKTHTCPPCPAPEAAGGPSVFLFPPKPKDTLMISRTPEVTCVVVDVSHEDPEVKFNWYVDGVEVHNAKTKPREEQYNSTYRVVSVLTVLHQDWLNGKEYKCKVSNKALPAPIEKTISKAKGQPREPQVYTLPPSREEMTDNQVSLTCLVKGFYPSDIAVEWESNGQPENNYKTTPPVLMSDGSFFLASKLTVDKSRWQQGNVFSCSVMHEALHNHYTQKSLSLSPG
light 1: B1 light 2 with D1R, R37D, D41K, E122K, S130R
heavy 2: EVQLVESGGVLVKTGGSLRLSCVASGFSFKKAWMNWVRYAPGKGLEWVGRIKRNSDGGAADYAARVKDRFTLSRDDSKNTLYLQMNSLKTEDTAVYYCTTLDSSSWYVGYYYMDVWGRGTTVTVSSASTKGPSVFPLAPSSKSTSGGTAALGCLVKDYFPEPVTVSWNSGALTSGVHTFPAVLQSSGLYSLSSVVTVPSSSLGTQTYICNVNHKPSNTKVDKKVEPKSCDKTHTCPPCPAPEAAGGPSVFLFPPKPKDTLMISRTPEVTCVVVDVSHEDPEVKFNWYVDGVEVHNAKTKPREEQYNSTYRVVSVLTVLHQDWLNGKEYKCKVSNKALPAPIEKTISKAKGQPRRPRVYTLPPSREEMTKNQVSLVCLVKGFYPSDIAVEWESNGQPENNYKTTPPVLDSDGSFFLYSVLTVDKSRWQQGNVFSCSVMHEALHNHYTQKSLSLSPG
light 2: DIHMTQSPSSVSASLGDRVTFTCRASQNINNWLAWYQRKPGDAPKLLIYTASSLQSGVPSRFSGSGSGTDFTLTISSLQPDDFATYYCQQAHSLPITFGQGTRLGIKRTVAAPSVFIFPPSDEQLKSGTASVVCLLNNFYPREAKVQWKVDNALQSGNSQESVTEQDSKDSTYSLSSTLTLSKADYEKHKVYACEVTHQGLSSPVTKSFNRGEC
B3: GOMP001_bsAb_029 (bispecific antibody, human IgG1, kappa, L234A L235A)
heavy 1: B2 heavy 1
light 1: B1 light 2 with D1R, R37D, D41K, E122K, S130R
heavy 2: QVQLVQSGAEVKKPGASVKVSCKASGYTVTGYYMHWVRYAPGQGLEWMGWINPNSGGTNFAQRFQGRVTMTRDTSISTFYMDLNRLRSDDTAVYYCARGGAPVSYWFFDLWGRGTLVTVSSASTKGPSVFPLAPSSKSTSGGTAALGCLVKDYFPEPVTVSWNSGALTSGVHTFPAVLQSSGLYSLSSVVTVPSSSLGTQTYICNVNHKPSNTKVDKKVEPKSCDKTHTCPPCPAPEAAGGPSVFLFPPKPKDTLMISRTPEVTCVVVDVSHEDPEVKFNWYVDGVEVHNAKTKPREEQYNSTYRVVSVLTVLHQDWLNGKEYKCKVSNKALPAPIEKTISKAKGQPRRPRVYTLPPSREEMTKNQVSLVCLVKGFYPSDIAVEWESNGQPENNYKTTPPVLDSDGSFFLYSVLTVDKSRWQQGNVFSCSVMHEALHNHYTQKSLSLSPG
light 2: DIQMTQSPSSLSASVGDRVTITCRASQSISRYLNWYQRKPGDAPKVLIYNTSSLKSGVPSRFSGSGSGTDFTLTISSLQPEDFGTFYCQQSHSTPFTFGPGTKVDIKRTVAAPSVFIFPPSDEQLKSGTASVVCLLNNFYPREAKVQWKVDNALQSGNSQESVTEQDSKDSTYSLSSTLTLSKADYEKHKVYACEVTHQGLSSPVTKSFNRGEC
B4: GOMP001_bsAb_030 (bispecific antibody, human IgG1, kappa, L234A L235A)
heavy 1: B3 heavy 2
light 1: B3 light 2
heavy 2: B1 heavy 2
light 2: B1 light 2
B5: GOMP001_bsAb_031 (bispecific antibody, human IgG1, kappa, L234A L235A)
heavy 1: B2 heavy 1
light 1: B1 light 2 with D1R, R37D, D41K, E122K, S130R
heavy 2: QGQLVESGGGVVQPGRSLRLSCAASGFTFRGFGMHWVRYAPGKGLEWVAIIYYDGKNKYYADRVKGRFTISRDNSKNTLYLQMNSLRAEDTAVYYCAKGGGYNWFDPWGRGTLVTVSSASTKGPSVFPLAPSSKSTSGGTAALGCLVKDYFPEPVTVSWNSGALTSGVHTFPAVLQSSGLYSLSSVVTVPSSSLGTQTYICNVNHKPSNTKVDKKVEPKSCDKTHTCPPCPAPEAAGGPSVFLFPPKPKDTLMISRTPEVTCVVVDVSHEDPEVKFNWYVDGVEVHNAKTKPREEQYNSTYRVVSVLTVLHQDWLNGKEYKCKVSNKALPAPIEKTISKAKGQPRRPRVYTLPPSREEMTKNQVSLVCLVKGFYPSDIAVEWESNGQPENNYKTTPPVLDSDGSFFLYSVLTVDKSRWQQGNVFSCSVMHEALHNHYTQKSLSLSPG
light 2: DIQMTQSPSSLSASVGDRVTITCRASQSISTYLNWYQRKPGDAPKLLIYSASSLQSGVPSRFSGSGSGTDFTLTISNLQPEDFAIYYCQRSYSPPFTFGPGTKLDIRRTVAAPSVFIFPPSDEQLKSGTASVVCLLNNFYPREAKVQWKVDNALQSGNSQESVTEQDSKDSTYSLSSTLTLSKADYEKHKVYACEVTHQGLSSPVTKSFNRGEC
B6: GOMP001_bsAb_032 (bispecific antibody, human IgG1, kappa, L234A L235A)
heavy 1: B5 heavy 2
light 1: B5 light 2
heavy 2: B1 heavy 2
light 2: B1 light 2

Target: human EGFR, C-terminal eGFP-tagged, on CHO-K1 cells (human, UniProt P00533 25-1210)
Experiment: cell-based or functional assay

| Binder | EC50 CHO-K1 EGFR Low (nM); T cell activation bioassay, luciferase | EC50 CHO-K1 EGFR Med (nM); T cell activation bioassay, luciferase |
| --- | --- | --- |
| B1 | 0.245 nM | 0.122 nM |
| B2 | 0.183 nM | 0.028 nM |
| B3 | 0.271 nM | 0.0226 nM |
| B4 | 0.0644 nM | 0.00272 nM |
| B5 | 1.66 nM | 0.446 nM |
| B6 | 0.122 nM | 0.0482 nM |
